# Earlier results, collected in paper PMC7427315.
# Biological target: MAG ECD (Mus musculus) (UniProt P20917)
substance,measurement,value
MAG ECD (from UniProt P20917),Kd,380 µM
